Measured values: a protein production outcome set (Wang et al. 2014)

Experiment: label from the status in PepcDB records
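Note: failed if final PepcDB status was selected cloned or expressed and not failed if soluble or beyond.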

Question: With “MSLYDLKPNEKGRIKDIKGDERLSKRLSALGFIEGTEVEVKMMAPLGDPILVNVRGFNIAIRKNDAKNIFLKEAKLEHHHHHH” as the sequence, how does the protein production read?
Answer: Its protein production is “not failed”.

Question: Which protein production does the source give for “MSLYTILVVDDSPMIVDVFVTMLERGGYRPITAFSGEECLEALNATPPDLVLLDIMMEPMDGWETLERIKTDPATRDIPVLMLTAKPLTPEEANEYGSYIEDYILKPTTHHQLYEAIEHVLARRHSIAADEGHHHHHH” here?
Answer: Its protein production is “not failed”.

Question: With “MSMKRSREESQGGGNHNRFVDEGPRLNLPLTKTPELINKIESYLKVHYTCPHQQTENSSKTSTLPKSPEKLKAMNFPISTIKIGDCVFVAKNPDDIVAKFYFAKKKLLWEFLFGEPVANMPRLKSKIEIQWNDVSSFEESINSRDETGILKIELKKRPTFFTETNPQAGKHTQWKQLDYDFTGDQASYYRRHTLHFPPGVLQKNLEKLLTDSFWSKLYKVPFPVHESLYFDIGFENNNSSNGHSKTVGFNVNNGLQHDFSQVRDLKERKKIITLIGIGGVGEGEGNFSMANGGWQRNSYSHVNSLNYNTDNGLLGMQAIPPSSQVANEHYNNTQNDYTGSQFGYRMNQDEIQKMQRIGKILESQAYAVPDTQTKLTSSGMNNGPMYPPAGSYLESRLLEEWYEHTRRFQQ” as the sequence, how does the protein production read?
Answer: The protein production was “not failed”.

Question: Which protein production does the source give for “MSMLKPSGLKAPTKILKPGSTALKTPTAVVAPVEKTISSEKASSTPSSETQEEFVDDFRVGERVWVNGNKPGFIQFLGETQFAPGQWAGIVLDEPIGKNDGSVAGVRYFQCEPLKGIFTRPSKLTRKV” here?
Answer: Its protein production is “not failed”.

Question: With “MSMPILLLVAVILAIYAVAYLFYGRNILQEKVVRASPERETPAIAKFDGVDYVPAHRFVLFGHHFASIAGAGPIVGPAIAMAYGWLLPLVWVLFGNVFMGAVHDYLSLMASVRYGGISIVSVGENLMGRKARYLFLIYVLFTLILVYAAFASIAASLFARDPRVATLSILFMPLALLLGIMMYRMGLGMGPSTVITVVLVIAAFVYSYNHGIVIGTFDPSLPPGEGGWVAYHRWVIILGLYALLAASLPVWYLLQPRDYLNAYILWTGLGLAAIAAILLGTQSLKGPAYTSFQPNIIAGQPTPFWPAIPLIIACGSLSGFHSLVASGTTSKQLASELDALFVGYGAMLLEGALSGLAVIIPISFAWNAPELIQKGVIENNMLDLAAVPRYAVGYGYTLAKTFEMFGVGFDTGYSFFTLFASLMLSMYVLTTLDTGTRLARFAWQELFDWLANVDKNLYSIVTNKWVSSLAVVIIGSALAYPVLEIGAGYKAAYNVVWPAFAGANQMLAAIALLTSALWVYGVLNVRGGTGLLILLPSLFLWVTVTAGLTWWLMVILPVLPAIQQFGAGSMILFTLLLSLLLFALFIINFNKLSKQAGASQQAQA” as the sequence, how does the protein production read?
Answer: The protein production was “failed”.

Question: For “MSMQEMVTISIVTYNSRYIFNVLDQLKAELGTDSIYDIHIYDNHSETAYLEKLTTYEPFITIHRAEENQGFGHGHNQVLFNASTKYAIIFNPDVLVTKDVLDRLLNRIKIDKNIAVVSPKVLNEDGTTQYLVRQKLDVFDYMLRFIPFQFVKKIFDKRLSIYECRDLSDTETTDIKMGSGCFMLIDREKFVEIGGFDERFFMYFEDNDLCLRFGKAGYRILYTPFETVVHMYEKGAHKSRKLFKIFMQSMGKFFNKWGWRFFLEHHHHHH”, which protein production is on record?
Answer: Its protein production is “not failed”.

Question: For “MSMYNMDLDKVIRKINKKGARTVGLQFPEGLKMQAVKIAKAIESQTPATVIISGDPCFGACDVSDYKMKGSVDLIVHYGHTPLPLKYEVPTLFIEAFSNIDVKKDLEKCLEKLEDYSKIALVTTTQHLHLLNEIKDYLEDNGKEVVLGSSKNTKKGQVLGCNFSSIKNLDAEVYLFIGSGNFHPLGIYLFTKSPVLALDPYNSEIRDISAFADRILRIRFARITKAREAEKWGIIVSSKEGQYRMKLAKEIKKILEDNKMEAYIIMADNINPDILLPYMELDAFVVSACPRIAIDDSQMYKKPLLTPQELEIVLNKRQWENYQLDEILFHERYK”, which protein production is on record?
Answer: The protein production was “failed”.

Question: Which protein production does the source give for “MSNACLASSLLSVCFRLSTERSAMSTSRLRPRCLSVLLAALLLWGGLPTASAQPQRAVRADTLYTMTGDPIENGVVLIENETIAAVGPTSEVDVPASAEVHKASVVTPGLIDPRGTVGLSGIYNVPADQDQLDTSEPMQPALRALDAYNPREQLVSFVQQLGFTTVHTGHAPGALISGQTATFSTAGTTVEASLRDSITTVAFTLGPDAQARFESPGTRAKGVAMLRQALHDAQAAMDGGEPEGGDLGQDVLQDVLRGEVPALITAHRAHDIQTALRLQEEFGFDLILDGAAEAYLMTEEIAEADVPVILHPTMARPSGTTQNAAFTTAGVLHDAGVPVAIQTGWEPYVPKTRIALYEAAIAMAHGLPREAALASITREAAEILGLDNVGTVAPGQRADLALFDGDPFEYTTHVCTVLSGGEVVSDECK” here?
Answer: Its protein production is “failed”.

Question: Which protein production does the source give for “MSNEDNVRQETKNKKEKLRLSFPETRFMKFMGGKDLLFALIMLILIGIAIFIFDQVSYIFKPFIIVFNTIVAPIIVSIILYYLFNPLVNLMERYNISRLWGVIILFLVIIGVIALAINLLIPVIGTQFKSFGNNFPHYVDKVNQFIDNLTRNSLISNFYGQIQEQLDALANKLPSMVSDYFNGFGSKVKNFAEAIVNVGVVIATTPFVLFFMLKDSHHFKEYSTKLMPPKFRKDYHDLLDKMSVQVGSYIQGQIIVSFCIGILLFIGYSIIGLDYSLILASIAAVTSVVPYLGPTIAISPAIIIALITSPIMLLKLIIVWTAVQFIEGHFISPNIMGKTLKIHPLTIIFILLSAGNLLGVVGVILGIPAYAILKVLVSHLYSMYKRRYNKYYGDDAGEYEITNDEQIR” here?
Answer: The protein production was “failed”.

Question: Which protein production does the source give for “MSNFFSVRIETLGCRLNQVESEALAVRFAECGFDVFSKEAETSILPVKLCIVNTCTVTGKAEQKARRLIRLLLKEHEESVILVTGCYAELEADSIEKINKRIIAFSGKKKDELDGLPQFLKDSCLKNKDLKEDTVNLKKNLLIFRNEIYAKEDQQDKSFLLKETERRKSMFKLSSPVFVFHSRASLKIQDGCNNACAYCRIRLARGTSVSLPAEEAVRRIVQIEKNGAAEVVLSGVNLSQYRDETYGGFANLLAKLLENTKKIRLRISSMYPECVDDGILEIVANKRICPHFHLSIQSGSDKILKAMNRPYREADIRMAINNLRKAKDNPFIGCDIITGFPSETEEDFLQTFKMCEDLKIPGIHVFPFSARPGTKAFSMRPKVPEREAGRRASLLSELSGKNYQSYLASCNGKLFFGVIEKPQNNEDLRIVTENYLSLPLVVNKKAENYKGGEGLFVVIKDGNAYLAD” here?
Answer: Its protein production is “failed”.

Question: With “MSNFSEGEIFIANIEKKSLECRENDEIVVLKICELCNIIYPIFNKIFGNGFVGDTLKKDLKNSSSQVQRAIEKFPEETKYVSMLYSYNINKYENMEKLKRDLDNGIISFLWMKRTLEFIITFLEKCYITCSETKLSICAQEAYNEVLKKYHGFITSKIVKLCLKLSPTKDILTKKLGFQTHQQASTVLQKCLSITKPLVRDISVTIEKFNCDFEEKI” as the sequence, how does the protein production read?
Answer: Its protein production is “failed”.

Question: With “MSNKIITLEINLEPSDNHRLASLCGPFDDNIKHLERRLGVEINYRGNFFTIVGQPHTAAAALDIIKTLYVETAPVRGQITDIEPEQIHLAIKESGVLEQHSESSIAHGKEVFVKTKKGVIKPRTPNQAQYLMNMVTHDITFGVGPAGTGKTYLAVAAAVDALERQEIRRILLTRPAVEAGEKLGFLPGDLSQKVDPYLRPLYDALFEMLGFERVEKLIERNVIEVAPLAYMRGRTLNDAFIILDESQNTTVEQMKMFLTRIGFNSRAVITGDVTQIDLPRGAKSGLRHAIEVLNEVDEISFNFFQADDVVRHPVVARIVNAYEKWEAQDQKERKEYEQRRREERENKLLEMQRAEMTLSHNNESNPS” as the sequence, how does the protein production read?
Answer: The protein production was “failed”.

Question: With “MSNMQLDTLRRIVQEINSSVSLHDSLDIMVNQVADAMKVDVCSIYLLDERNQRYLLMASKGLNPESVGHVSLQLSEGLVGLVGQREEIVNLENASKHERFAYLPETGEEIYNSFLGVPVMYRRKVMGVLVVQNKQPQDFSEAAESFLVTLCAQLSGVIAHAHAVGNID” as the sequence, how does the protein production read?
Answer: Its protein production is “not failed”.

Question: Which protein production does the source give for “MSNNGSSPLVLWYNQLGMKDVDRVGGKNASLGEMITNLSGMGVSVPNGFATTADAFNQFLDQSGVNQRIYELLDKTDIDDVTQLAKAGAQIRQWIIDTPFQPELENAIREAYAQLSADDENASFAVRSSATAEDMPDASFAGQQETFLNVQGFDAVLVAVKHVFASLFNDRAISYRVHQGYDHRGVALSAGVQRMVRSDLASSGVMFSIDTESGFDQVVFITSAWGLGEMVVQGAVNPDEFYVHKPTLAANRPAIVRRTMGSKKIRMVYAPTQEHGKQVKIEDVPQEQRDIFSLTNEEVQELAKQAVQIEKHYGHPMDIEWAKDGHTGKLFIVQARPETVRSRGQVMERYTLHSQGKIIAEGRAIGHRIGAGPVKVIHDISEMNRIEPGDVLVTDMTDPDWEPIMKKASAIVTNRGGRTCHAAIIARELGIPAVVGCGDATERMKDGENVTVSCAEGDTGYVYAELLEFSVKSSSVETMPDLPLKVMMNVGNPDRAFDFACLPNEGVGLARLEFIINRMIGVHPRALLEFDDQEPQLQNEIREMMKGFDSPREFYVGRLTEGIATLGAAFYPKRVIVRLSDFKSNEYANLVGGERYEPDEENPMLGFRGAGRYVSDSFRDCFALECEAVKRVRNDMGLTNVEIMIPFVRTVDQAKAVVEELARQGLKRGENGLKIIMMCEIPSNALLAEQFLEYFDGFSIGSNDMTQLALGLDRDSGVVSELFDERNDAVKALLSMAIRAAKKQGKYVGICGQGPSDHEDFAAWLMEEGIDSLSLNPDTVVQTWLSLAELKK” here?
Answer: Its protein production is “failed”.

Question: Which protein production does the source give for “MSNNNKYFTITKKQYKKMRRNKIELLFNVKVLKKKNGRQKFKILHEVENKPKIPIKIIEDQPESPKPLKPPKPPKPPKGPDNPEEPDSPEEPKETDQPGGPDNPNAGNKKMPTPEEYVTRKEFNEFKDSNNQRLTKIENKVDKLEVKVDKLAEIVQTQGEEIKELKVEQKAQSETLQLILKTLQKMNDRLDRMETRLDKIDSPKLEHHHHHH” here?
Answer: Its protein production is “not failed”.

Question: For “MSNNQQMMLNRIKVVLAEKQRTNRWLAEQMGKSENTISRWCSNKSQPSLDMLVKVAELLNVDPRQLINGKIKI”, which protein production is on record?
Answer: The protein production was “not failed”.

Question: For “MSNPNEDSPMILQRIFALALLAMCAALAVMAWPYQAAFSYEPVGPRAYPLLVLGLMGLGLLYLVFRPTPIVRKDDEPELDRETLIKITACVGLLIVFAATFEALGFILSAILVGLPMARLYGGRWLQSAIVVAGMSIFLYWLFDRVMDVPLPLGLLSVLEN”, which protein production is on record?
Answer: Its protein production is “failed”.

Question: For “MSNQYDPSQPVVFTDFSPKEGGMRTRLYIEGSNFGNDPTKIHITIGGEKTKTIGADGKKIYCMVPSKAFDGIINVRVDGPDGKPIAEHTFEEEFKYTPATIVGTLLRKVDEDNNSAFQEGSFDEGASIPSNDCMVFDPKYKDGDNRLLFSSNHSDGLHLIDLTERTVKRLFPRTGYSTMYSFTFSADGDTLLFTDDHGQDNTTRANIYYSLRRENFRRIRPYNYGRTAYSLVYMDDGTIFYTTWWEGKVYKMIRNGAIPNIDENAEVAFSLSQISAVGGSHTILFRHPSNKFMYMLSDNFGAVFRADYDPVAKTFGNPSIIAGNMNDKSFKEGTGGSARFNKPQFGVFVKNEKYGEGIGPDNDQYDFYFCDRENHCIWKLDPHGVASLAAGRSNENADGKIWGYVDGNPLHEARFNQPAGLAYDPDTDMFYIGDIDNKGIRYMTTELEHHHHHH”, which protein production is on record?
Answer: The protein production was “failed”.

Question: For “MSNSHPLRPFTAVGEIDHVHILSEHIGALLIGEEYGDVTFVVEKKRFPAHRVILAARCQYFRALLYGGMRESQPEAEIPLQDTTAEAFTMLLRYIYTGRATLTDEKEEVLLDFLSLAHKYGFPELEDSTSEYLCTILNIQNVCMTFDVASLYSLPKLTCMCCMFMDRNAQEVLASDGFLSLSKTALLNIVLRDSFAAPEKDIFLALLNWCKHNAKENHAEIMQAVRLPLMSLTELLNVVRPSGLLSPDAILDAIKVRSESRDMDLNYRGMLIPEENIATMKYGAQVVKGELKSALLDGDTQNYDLDHGFSRHPIDDDCRSGIEIKLGQPSIINHIRLLLWDRDSRSYSYFIEVSMDELDWIRVIDHSHYLCRSWQKLYFPARVCRYIRIVGTHNTVNKIFHIVAFECMFTNKAFTLEKGLIAPMENVATIADCASVIEGVSRSRNALLNGDTKNYDWDSGYTCHQLGSGAIVVQLAQPYMIGSIRLLLWDCDDRSYSYYVEVSTNQQQWTMVADRTKVSCKSWQSVTFERQPASFIRIVGTHNTANEVFHCVHFECPEQQSTQKEDSSEEPGTGDLSTPSQQLDPHAPRAPSASSLPPSPGPNLHSPNQQNQ”, which protein production is on record?
Answer: The protein production was “failed”.
